Earlier results as cited in article PMC4775371.

Target: H1.0 (UniProt P07305)
Sequence of UniProt P07305 (P07305 2-194): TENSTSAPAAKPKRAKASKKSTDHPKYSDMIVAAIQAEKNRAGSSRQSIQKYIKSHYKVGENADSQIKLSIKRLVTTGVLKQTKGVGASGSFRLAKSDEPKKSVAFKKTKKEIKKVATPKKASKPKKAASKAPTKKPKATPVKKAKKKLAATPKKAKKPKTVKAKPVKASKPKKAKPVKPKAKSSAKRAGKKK

FACT (from UniProt Q9Y5B9)
Kd: 0.032 µM
